Test results from paper PMC11869522, “Competitive displacement of lipoprotein lipase from heparan sulfate is orchestrated by a disordered acidic cluster in GPIHBP1” (Journal of Lipid Research, 2025).

Columns and labels:
mouse LPL = test: Native PAGE binding to mouse LPL; details: 4 µM LPL with 18 µM GPIHBP1, 30 min on ice; Coomassie staining
Protocol: Distinct impacts of disordered acidic clusters in GPIHBP1
To confirm interactions between puri fi ed human GPIHBP11–131, G P IH B P 1 Cluster1-neutral, or GPIHBP1 Cluster2-neutral with human, mouse, and bovine LPL, these protein pairs were incubated for 30 min on ice (4 µM LPL with 18 µM GPIHBP1) before they were analyzed by native PAGE. As th ese concentrations were well above t he K D of 0.2 nM for the wildtype LPL•GPIHBP1 interaction, LPL is saturated with GPIHBP1 in these experiments (1). […]
spect r a for the purified GPIHBP1 variants wer e r ecor ded at 25°C in Helman cuvettes (path- length of 1 mm) with a scan rate of 50 nm/ min c ove r i ng the range of 190- 250 nm, averaging three scans for each protein. Spectra for the pr ote i ns were compared after converting to molar ellipticity using the following equation, […] where, Mw is the molecular weight of the protein, c is the protein concentration in g/l, l is the pat h-length of the cuvette, Nr number of amino acid residues in the protein.
Figure S1 : Binding of GPIHBP1 charge mutants to LPL as assessed by Native PAGE. The electrophoretic mobility of GPIHBP1 variants alone or in presence of purified human LPL ( A), b ovine LPL (B), and murine LPL (C) was assessed by native PAGE followed by Coomassie blue staining. […]

[1] = system: hLPL bound to immobilized heparan sulfate; test: GPIHBP1-mediated extraction of LPL from HSPGs (SPR, immobilized heparin dp4 fragments); type: binding, human
From the text: To mimic electrostatic conditions found in the sub-endothelial spaces where surface-bound heparan-sulfate proteoglycans (HSPGs) are abundant, we designed a surrogate sensor surface using a streptavidin-coated CM5 sensor chip to capture high densities of biotinylated synthetic heparin dp4 fragments ([28], [29]). The reference surface was loaded with a neutral and non-sulfated fragment (M09 S00 from Iduron), while the active surface was loaded with a negatively charged fragment (M09 S08a from Iduron) containing N- and O-6-linked sulfations on each of the […] glucosamine residues in the DP4 fragment. Only the highly sulfated oligosaccharide bound LPL, and those interactions were transient with high off-rates. Despite the very transient nature of this binding, we created a stable reservoir of hLPL on the sensor surface by combining the fast kinetics of polyelectrolyte interactions with severe mass transport limitation—the latter phenomenon impedes LPL escape from the surface due to the fast rebinding that is favored by the high densities of immobilized heparin fragments (300 fmol/mm^2). For each experiment, 12.5 nM hLPL was loaded for 100 s at a flow rate of 20 μl/min in 10 mM Hepes (pH 7.4), 150 mM NaCl, 4 mM CaCl2, 10% (vol/vol) glycerol, 0.05% (vol/vol) surfactant P20, 1 mg/ml defatted BSA, […], and 0.05% (wt/vol) NaN3.
To compare the ability of GPIHBP1^1–131 and its charge variants to bind and extract hLPL from this dynamic reservoir, we injected twofold serial dilutions of 1.25–200 nM GPIHBP1^1–131; 1.25–200 nM GPIHBP1^Cluster1-neutral; GPIHBP1^Cluster2-neutral; 1.25–200 nM GPIHBP1^34–131; 0.1–1.6 μM GPIHBP1^1–33 with Tyr^18–SO4; or 1.25–200 nM GPIHBP1^34–131 in the presence of 1 μM sulfated GPIHBP1^1–33 for 250 s at 20 μl/min in 10 mM Hepes (pH 7.4), 150 mM NaCl, 4 mM CaCl2, 10% (vol/vol) glycerol, 0.05% (vol/vol) surfactant P20, 0.2 mg/ml fatty acid-free BSA, and 0.05% (wt/vol) NaN3. At the end of each cycle, two consecutive injections of 10 μl 3 M guanidinium chloride regenerated the chip.
GPIHBP1’s ability to displace LPL from its HSPG-bound state in the sub-endothelial spaces is essential for the trans-endothelial trafficking of LPL to the luminal surface of capillary cells ([29]). The importance of the acidic tail in this process is supported by solid evidence from surrogate in vitro models and in vivo studies in gene-edited mice ([28], [29]). It was therefore important to determine the relative impact of the two charge-clusters in GPIHBP1 on their ability to disrupt LPL•HSPG interactions. To gain this insight, we measured the ability of different GPIHBP1 charge variants to displace hLPL from a SPR sensor chip surface coupled with a high density of immobilized small heparin-like fragments ([28]). […]

Molecule | binding to mLPL as judged by native PAGE (mouse LPL) | reduction in hLPL levels on the sensor surface after GPIHBP1 injections (ΔLPL, displaced LPL) ([1]; serial twofold dilutions 12.5–200 nM, 250 s at 20 μl/min, pH 7.4, mean ± SD, n = 3) [%] | competitive displacement of HSPG-bound hLPL (in words) ([1]; 12.5–200 nM GPIHBP1 proteins, 0.1–1.6 μM sulfated GPIHBP1^1–33, or GPIHBP1^34–131 with 1 μM sulfated GPIHBP1^1–33)
GPIHBP1^Cluster1-neutral: GPIHBP1 mutant with all Glu/Asp replaced by Gln/Asn at residues 1–17 (protein, Tyr18 sulfation present in less than 40%; one bi-antennary N-linked glycosylation; left off: uPAR domain III, N-terminal, cleaved) QTQQQQQQQNQNHGPNNYDEEDEDEVEEEETNRLPGGGSRVLLRCYTCKSLPRDERCNLTQNCSHGQTCTTLIAHGNTESGLLTTHSTWCTDSCQPITKTVEGTQVTMTCCQSSLCNVPPWQSSRVQDPTG | bound | 35 | 
GPIHBP1^Cluster2-neutral: GPIHBP1 mutant with all Glu/Asp replaced by Gln/Asn at residues 19–30 (protein, Tyr18 sulfation absent; one bi-antennary N-linked glycosylation; left off: uPAR domain III, N-terminal, cleaved) QTQQEEEEEDEDHGPDDYNQQNQNQVQQQQTNRLPGGGSRVLLRCYTCKSLPRDERCNLTQNCSHGQTCTTLIAHGNTESGLLTTHSTWCTDSCQPITKTVEGTQVTMTCCQSSLCNVPPWQSSRVQDPTG | bound |  | neither dislodged any LPL from the surface
